In US20090118184A1 (UNIVERSITY OF ROCHESTER, published 2009):

Target: T1, factor VIIIa A1/A3C1C2 dimer, Glu1984Ala (human, UniProt P00451 20-391; P00451 1709-2351)
T1 sequence 1: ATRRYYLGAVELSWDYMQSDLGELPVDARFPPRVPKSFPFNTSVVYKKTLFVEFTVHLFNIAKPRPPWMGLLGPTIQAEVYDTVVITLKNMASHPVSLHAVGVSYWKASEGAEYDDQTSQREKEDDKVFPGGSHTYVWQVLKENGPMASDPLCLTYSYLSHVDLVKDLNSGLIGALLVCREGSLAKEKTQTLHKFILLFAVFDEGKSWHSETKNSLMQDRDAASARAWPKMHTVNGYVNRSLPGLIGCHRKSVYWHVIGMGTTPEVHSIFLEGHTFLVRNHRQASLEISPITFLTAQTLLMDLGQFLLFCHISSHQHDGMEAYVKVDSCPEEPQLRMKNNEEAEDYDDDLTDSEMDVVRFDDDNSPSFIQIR
T1 sequence 2: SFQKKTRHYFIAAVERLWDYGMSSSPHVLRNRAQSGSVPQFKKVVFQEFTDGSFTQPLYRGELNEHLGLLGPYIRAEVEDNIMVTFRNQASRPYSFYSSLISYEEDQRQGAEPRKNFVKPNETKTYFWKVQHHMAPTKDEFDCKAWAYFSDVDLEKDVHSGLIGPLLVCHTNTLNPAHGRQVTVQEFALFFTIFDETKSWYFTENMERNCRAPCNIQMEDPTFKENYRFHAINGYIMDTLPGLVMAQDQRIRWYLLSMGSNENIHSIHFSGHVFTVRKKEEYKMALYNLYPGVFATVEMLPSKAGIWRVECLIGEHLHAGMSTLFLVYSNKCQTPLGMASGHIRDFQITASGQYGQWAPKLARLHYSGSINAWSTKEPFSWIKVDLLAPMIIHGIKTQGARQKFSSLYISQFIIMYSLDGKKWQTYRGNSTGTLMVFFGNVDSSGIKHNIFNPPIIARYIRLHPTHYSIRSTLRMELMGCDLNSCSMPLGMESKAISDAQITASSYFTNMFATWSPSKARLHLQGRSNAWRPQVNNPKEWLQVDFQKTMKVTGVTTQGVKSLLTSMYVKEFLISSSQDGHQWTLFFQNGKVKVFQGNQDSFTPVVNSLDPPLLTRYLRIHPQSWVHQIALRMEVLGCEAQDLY
Test: cell-based or functional assay

B1: factor VIIIa A2 subunit, wild type (other)
chain: SVAKKHPKTWVHYIAAEEEDWDYAPLVLAPDDRSYKSQYLNNGPQRIGRKYKKVRFMAYTDETFKTREAIQHESGILGPLLYGEVGDTLLIIFKNQASRPYNIYPHGITDVRPLYSRRLPKGVKHLKDFPILPGEIFKYKWTVTVEDGPTKSDPRCLTRYYSSFVNMERDLASGLIGPLLICYKESVDQRGNQIMSDKRNVILFSVFDENRSWYLTENIQRFLPNPAGVQLEDPEFQASNIMHSINGYVFDSLQLSVCLHEVAYWYILSIGAQTDFLSVFFSGYTFKHKMVYEDTLTLFPFSGETVFMSMENPGLWILGCHNSDFRNRGMTALLKVSSCDKNTGDYYEDSYEDISAYLLSKNNAIEPR
Decay rate relative to wild type, Factor VIIIa (1.5 nM, factor IXa absent): 0.41 relative to wild type | Decay rate, Factor VIIIa (1.5 nM factor VIIIa, factor IXa absent): 0.0574 min⁻¹
